Results: patent US20240190999A1 (Molecular Partners, published 2024)

Experiments:
[1] = target: human 4-1BB on transfected HT1080 NF-kB-luciferase reporter cells (human, UniProt Q07011 24-255); assay: cell-based or functional assay
[2] = target: human serum albumin (HSA) (human, UniProt P02768 25-609); assay: SPR (ProteOn XPR36), MpA captured on bio.h4-1BB, HSA analyte, 1:1 Langmuir fit
Procedure: (§1) ProteOn setup for MpA binding to serum albumin of different species: SPR measurements were performed using a ProteOn XPR36 instrument (BioRad). The running buffer was PBS pH 7.4 containing 0.005% Tween 20® (PBST). First, bio.h4-1BB was coated on NLC chip (BioRad) to a level of 320 RU before […] MpA was immobilized for 180 s at constant flow of 30 μl/min to a level of 200 RU. The binding of the serum albumin to MpA was detected by applying HSA (human serum albumin), CSA (cynomolgus serum albumin) and MSA (mouse serum albumin) as titration with a 180 s association and 1800 s dissociation phase using a constant flow of 100 μl/min. HSA, CSA and MSA binding was measured serially and the bio.h4-1BB/MpA complex was regenerated each time with 10 mM glycine pH 2 and 124 mM H3P04. Thus, MpA had to be recoated after each regeneration step. The signals were double referenced against the running buffer (PBST) treated control lane of L1 and A6. The 1:1 Langmuir model was used for the fitting.

[3] = target: mouse serum albumin (MSA) (mouse, UniProt P07724 25-608); assay: SPR (ProteOn XPR36), MpA captured on bio.h4-1BB, MSA analyte, 1:1 Langmuir fit
Chain of mouse serum albumin (MSA) (P07724 25-608 limits assumed): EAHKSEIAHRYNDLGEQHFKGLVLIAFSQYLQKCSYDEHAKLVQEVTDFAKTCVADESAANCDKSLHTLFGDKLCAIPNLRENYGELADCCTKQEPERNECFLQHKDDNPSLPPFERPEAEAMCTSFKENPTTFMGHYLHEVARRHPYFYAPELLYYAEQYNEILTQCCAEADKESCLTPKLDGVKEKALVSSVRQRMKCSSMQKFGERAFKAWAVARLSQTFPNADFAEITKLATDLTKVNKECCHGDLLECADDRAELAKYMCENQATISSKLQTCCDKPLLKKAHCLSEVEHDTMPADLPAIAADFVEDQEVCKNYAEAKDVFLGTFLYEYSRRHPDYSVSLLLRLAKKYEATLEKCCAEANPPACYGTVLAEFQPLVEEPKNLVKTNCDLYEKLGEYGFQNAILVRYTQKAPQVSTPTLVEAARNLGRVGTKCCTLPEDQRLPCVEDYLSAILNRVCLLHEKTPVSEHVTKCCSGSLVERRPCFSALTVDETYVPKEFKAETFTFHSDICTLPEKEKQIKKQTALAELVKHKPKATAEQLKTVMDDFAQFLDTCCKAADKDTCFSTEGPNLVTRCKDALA
Procedure: as §1

[4] = target: T1, biotinylated mouse 4-1BB (bio.m4-1BB) (mouse, UniProt P20334 24-187, limits assumed, biotinylated (site not stated)); assay: SPR (ProteOn XPR36), bio.m4-1BB on NLC chip, MpA as analyte
T1 sequence (looked up): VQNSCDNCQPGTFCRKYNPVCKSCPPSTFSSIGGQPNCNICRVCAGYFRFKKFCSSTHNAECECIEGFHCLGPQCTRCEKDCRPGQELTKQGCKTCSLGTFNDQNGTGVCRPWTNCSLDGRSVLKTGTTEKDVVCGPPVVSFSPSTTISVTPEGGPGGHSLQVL
Procedure: (§2) ProteOn setup for MpA binding to 4-1BB of different species: SPR measurements were performed using a ProteOn XPR36 instrument (BioRad). The running buffer was PBS pH 7.4 containing 0.005% Tween 20® (PBST). The bio.h4-1BB, bio.c4-1BB and bio.m4-1BB were immobilized on NLC chips (BioRad) to a level of 320 RU. The binding of MpA to 4-1BB was measured by injecting MpA in a serial dilution of 30, 10, 3.3, 1.1 and 0.3 nM with an association of 180 s and dissociation of 1800 s using a constant flow of 100 μl/min (see Table 3). The measurement was repeated three times and the targets were regenerated between the individual measurements using 10 mM glycine pH 2 and 124 mM H₃PO₄. The signals were double referenced against the running buffer (PBST) treated control lane of L1 and A6. h4-1BB, c-4-1BB, and m4-1BB refer to human, cynomolgus, and mouse orthologs of 4-1BB, respectively.

[5] = target: T2, cynomolgus FAP (cFAP) (cynomolgus monkey); assay: SPR (ProteOn XPR36), cFAP on GLC chip, MpA analyte, 1:1 Langmuir fit
T2 chain: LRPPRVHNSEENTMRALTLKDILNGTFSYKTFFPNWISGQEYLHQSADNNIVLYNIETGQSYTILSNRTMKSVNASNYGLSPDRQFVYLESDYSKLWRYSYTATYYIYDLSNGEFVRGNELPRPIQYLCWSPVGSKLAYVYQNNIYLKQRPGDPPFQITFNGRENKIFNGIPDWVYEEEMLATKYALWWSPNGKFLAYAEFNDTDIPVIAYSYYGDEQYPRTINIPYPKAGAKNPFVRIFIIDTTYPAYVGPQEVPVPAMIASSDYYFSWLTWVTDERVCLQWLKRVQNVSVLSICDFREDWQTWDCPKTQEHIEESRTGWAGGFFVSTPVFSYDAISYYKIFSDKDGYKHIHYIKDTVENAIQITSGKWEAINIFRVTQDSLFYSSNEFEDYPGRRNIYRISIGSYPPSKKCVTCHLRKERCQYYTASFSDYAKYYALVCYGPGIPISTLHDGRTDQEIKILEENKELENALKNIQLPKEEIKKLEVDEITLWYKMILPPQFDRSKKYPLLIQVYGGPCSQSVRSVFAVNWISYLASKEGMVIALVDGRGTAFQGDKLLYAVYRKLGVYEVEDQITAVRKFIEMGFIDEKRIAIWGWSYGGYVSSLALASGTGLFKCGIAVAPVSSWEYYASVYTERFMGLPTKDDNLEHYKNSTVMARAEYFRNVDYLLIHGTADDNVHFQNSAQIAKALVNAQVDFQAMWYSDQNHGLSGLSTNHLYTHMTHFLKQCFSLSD
Procedure: (§3) ProteOn setup for MpA binding to FAP of different species: SPR measurements were performed using a ProteOn XPR36 instrument (BioRad). The running buffer was PBS pH 7.4 containing 0.005% Tween 200 (PBST). hFAP (human FAP), cFAP (cynomolgus FAP) and mFAP (mouse FAP) were immobilized on a GLC chip (BioRad) at pH 5.3 to a level of 2000 RU, 1700 RU and 5000 RU, respectively. The interaction of FAP and MpA was measured by applying the MpA molecule as titration (see Table 2).

[6] = target: mouse FAP (mFAP) (mouse, UniProt P97321 26-761, limits assumed); assay: SPR (ProteOn XPR36), mFAP on GLC chip, MpA as analyte
Chain of mouse FAP (mFAP) (P97321 26-761 limits assumed): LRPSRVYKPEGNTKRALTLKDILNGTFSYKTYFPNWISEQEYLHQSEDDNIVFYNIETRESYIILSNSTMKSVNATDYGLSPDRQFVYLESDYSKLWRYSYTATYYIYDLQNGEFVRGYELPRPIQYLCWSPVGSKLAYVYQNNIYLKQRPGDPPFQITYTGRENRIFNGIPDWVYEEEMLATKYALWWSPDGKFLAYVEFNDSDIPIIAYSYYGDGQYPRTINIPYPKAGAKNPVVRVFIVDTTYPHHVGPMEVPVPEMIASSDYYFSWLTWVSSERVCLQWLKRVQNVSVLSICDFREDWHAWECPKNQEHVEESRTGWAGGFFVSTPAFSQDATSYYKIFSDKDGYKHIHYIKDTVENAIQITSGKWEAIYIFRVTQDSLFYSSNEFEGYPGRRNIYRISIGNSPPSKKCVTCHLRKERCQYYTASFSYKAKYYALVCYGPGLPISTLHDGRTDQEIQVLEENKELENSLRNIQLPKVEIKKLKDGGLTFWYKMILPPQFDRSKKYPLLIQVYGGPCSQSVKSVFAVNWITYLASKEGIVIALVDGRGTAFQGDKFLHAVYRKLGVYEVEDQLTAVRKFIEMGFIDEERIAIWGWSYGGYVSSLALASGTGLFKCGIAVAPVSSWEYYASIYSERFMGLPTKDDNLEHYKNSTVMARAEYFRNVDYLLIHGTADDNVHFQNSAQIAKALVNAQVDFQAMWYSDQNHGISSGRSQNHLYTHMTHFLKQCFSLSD
Procedure: as §3

[7] = target: T3, human 4-1BB on primary human CD8 T cells (human, UniProt Q07011 24-255); assay: cell-based or functional assay
T3 sequence (Q07011 24-255 limits assumed): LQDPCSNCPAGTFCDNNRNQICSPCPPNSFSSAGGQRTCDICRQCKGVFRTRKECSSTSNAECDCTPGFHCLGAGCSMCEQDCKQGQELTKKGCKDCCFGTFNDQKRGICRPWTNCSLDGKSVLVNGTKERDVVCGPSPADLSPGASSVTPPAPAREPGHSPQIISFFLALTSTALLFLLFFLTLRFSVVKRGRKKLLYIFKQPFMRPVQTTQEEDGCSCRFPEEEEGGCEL

[8] = target: T4, biotinylated human 4-1BB (bio.h4-1BB) (human, UniProt Q07011 24-186, limits assumed, biotinylated (site not stated)); assay: SPR (ProteOn XPR36), bio.h4-1BB on NLC chip, MpA analyte; mean of triplicate; apparent affinity (bivalent)
T4 construct: also called CD137
T4 sequence (Q07011 24-186 limits assumed): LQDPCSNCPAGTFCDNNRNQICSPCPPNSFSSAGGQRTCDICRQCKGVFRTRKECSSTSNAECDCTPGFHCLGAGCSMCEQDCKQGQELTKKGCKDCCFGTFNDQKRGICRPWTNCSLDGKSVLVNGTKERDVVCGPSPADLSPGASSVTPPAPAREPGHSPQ
Procedure: as §2

[9] = target: cynomolgus serum albumin (CSA) (cynomolgus monkey, UniProt A2V9Z4 25-608); assay: SPR (ProteOn XPR36), MpA captured on bio.h4-1BB, CSA analyte, 1:1 Langmuir fit
Chain of cynomolgus serum albumin (CSA) (A2V9Z4 25-608 limits assumed): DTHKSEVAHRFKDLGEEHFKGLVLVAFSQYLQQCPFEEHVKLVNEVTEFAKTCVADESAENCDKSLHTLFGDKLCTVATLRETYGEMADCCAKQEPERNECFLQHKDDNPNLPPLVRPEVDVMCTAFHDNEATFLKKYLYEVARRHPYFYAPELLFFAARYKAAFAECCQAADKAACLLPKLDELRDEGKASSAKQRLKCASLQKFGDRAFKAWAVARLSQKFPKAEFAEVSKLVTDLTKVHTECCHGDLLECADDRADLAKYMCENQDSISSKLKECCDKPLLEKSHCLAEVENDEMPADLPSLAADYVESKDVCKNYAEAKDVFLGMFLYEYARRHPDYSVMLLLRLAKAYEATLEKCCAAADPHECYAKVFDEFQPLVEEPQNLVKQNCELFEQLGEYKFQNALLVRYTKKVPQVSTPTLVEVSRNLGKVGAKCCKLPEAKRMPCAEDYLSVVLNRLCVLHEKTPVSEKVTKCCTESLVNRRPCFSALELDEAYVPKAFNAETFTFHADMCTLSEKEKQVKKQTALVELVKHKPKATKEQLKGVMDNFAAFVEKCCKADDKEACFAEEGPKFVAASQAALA
Procedure: as §1

[10] = target: T4, biotinylated human 4-1BB (bio.h4-1BB); assay: SPR (ProteOn XPR36), bio.h4-1BB on NLC chip, MpA analyte; mean of triplicate
Procedure: as §2

[11] = target: T3, human 4-1BB on primary human CD8 T cells; assay: cell-based or functional assay; remark: listed apart in the source
[12] = target: T5, human fibroblast activation protein (hFAP) (human, UniProt Q12884 26-760, limits assumed); assay: SPR (ProteOn XPR36), hFAP on GLC chip, MpA analyte, 1:1 Langmuir fit; mean of duplicate
T5 construct: Recombinant soluble protein; also called human FAP; rhFAP
Procedure: as §3
Two independent measurements were conducted to detect the binding of MpA to hFAP. The targets were regenerated using 10 mM glycine pH 2 and 124 mM H₃PO₄. The signals were double referenced against the PBST treated control lane of L1 and A6. The 1:1 Langmuir model was used for the fitting.

[13] = target: T5, human fibroblast activation protein …; assay: SPR (ProteOn XPR36), hFAP immobilised on GLC chip, construct as analyte
Procedure: Assay set-up: Briefly, SPR measurements were performed using a ProteOn XPR36 instrument (BioRad) as described above. Biotinylated human and cynomolgus 4-1BB and human FAP were immobilized either directly or indirectly via NeutrAvidin (˜6000 RU pre-coated) on a GLC chip to reach 600 RU, 700 RU and 2000 RU, respectively. The interaction of FAP-4-1BB bispecific constructs to the coated targets was measured by injecting the bispecific constructs in a serial dilution of 50, 16.7, 5.6, 1.9 and 0.6 nM with an association of 120 s and dissociation of 1800 s using a constant flow rate of 30 μl/min. Targets were regenerated between the individual measurements using 10 mM glycine pH 2 and 124 mM H₃PO₄. The signals were double referenced against the running buffer (PBST) treated control lane.
Target sequence in this assay (Q12884 26-760 limits assumed): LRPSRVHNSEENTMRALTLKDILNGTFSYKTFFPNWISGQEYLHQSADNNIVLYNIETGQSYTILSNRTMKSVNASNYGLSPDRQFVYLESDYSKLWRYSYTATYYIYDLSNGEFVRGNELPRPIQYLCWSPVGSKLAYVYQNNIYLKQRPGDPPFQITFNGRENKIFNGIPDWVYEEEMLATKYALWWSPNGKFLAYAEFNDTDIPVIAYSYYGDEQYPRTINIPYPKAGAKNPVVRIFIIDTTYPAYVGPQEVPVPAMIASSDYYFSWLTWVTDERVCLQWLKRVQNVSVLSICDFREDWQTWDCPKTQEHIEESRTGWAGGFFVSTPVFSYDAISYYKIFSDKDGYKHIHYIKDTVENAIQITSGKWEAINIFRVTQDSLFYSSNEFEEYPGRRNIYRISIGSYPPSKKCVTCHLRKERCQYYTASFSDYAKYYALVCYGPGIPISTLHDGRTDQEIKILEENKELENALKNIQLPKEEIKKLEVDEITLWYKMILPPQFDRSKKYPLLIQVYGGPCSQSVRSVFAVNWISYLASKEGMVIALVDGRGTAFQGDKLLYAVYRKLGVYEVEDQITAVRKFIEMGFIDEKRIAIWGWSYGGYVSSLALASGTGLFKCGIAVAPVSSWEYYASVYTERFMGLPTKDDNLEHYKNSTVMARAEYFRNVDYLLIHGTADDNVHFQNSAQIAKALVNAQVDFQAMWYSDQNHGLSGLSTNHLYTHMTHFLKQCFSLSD

[14] = target: T4, biotinylated human 4-1BB (bio.h4-1BB); assay: SPR (ProteOn XPR36), biotinylated human 4-1BB immobilised, construct as analyte

Chain of human 4-1BB on transfected HT1080 NF-kB-luciferase reporter cells (Q07011 24-255 limits assumed): as the sequence (Q07011 24-255 limits assumed) above

B1: Multispecific binding protein A (MpA) (designed binder)
chain: GSDLGKKLLEAARAGQDDEVRELLKAGADVNAKDYFSHTPLHLAARNGHLKIVEVLLKAGADVNAKDFAGKTPLHLAAADGHLEIVEVLLKAGADVNAQDIFGKTPADIAADAGHEDIAEVLQKAAGSPTPTPTTPTPTPTTPTPTPTGSDLGKKLLEAARAGQDDEVRELLKAGADVNAKDVLGWTPLHLAAFEGHLEIVEVLLKAGADVNAKDKKGWTPLQLAARTGHLEIVEVLLKAGADVNAKDHIGATPLHLAAWQGHPEIVEVLLKAGADVNAQDKSGKTPADLAADAGHEDIAEVLQKAAGSPTPTPTTPTPTPTTPTPTPTGSDLGQKLLKAAQEGQDDEVRELLKAGADVNAKDLRGITPLHVAAWQGHLEIVEVLLKAGADVNAKDSKGETPLHLAAFRGHLEIVEVLLKAGADVNAQDQQGETPADLAALAGHVDIAEVLQKAAGSPTPTPTTPTPTPTTPTPTPTGSDLGQKLLKAAQEGQDDEVRELLKAGADVNAKDLRGITPLHVAAWQGHLEIVEVLLKAGADVNAKDSKGETPLHLAAFRGHLEIVEVLLKAGADVNAQDQQGETPADLAALAGHVDIAEVLQKAAGSPTPTPTTPTPTPTTPTPTPTGSDLGKKLLEAARAGQDDEVRELLKAGADVNAKDYFSHTPLHLAARNGHLKIVEVLLKAGADVNAKDFAGKTPLHLAAADGHLEIVEVLLKAGADVNAQDIFGKTPADIAADAGHEDIAEVLQKAA
notes: also called HFBBH
EC50, NF-κB-luciferase reporter in h4-1BB-HT1080 cells with CHO-hFAP cells [1]: 0.41 nM
Kd [2]: 8 nM
koff [2]: 0.012 s⁻¹
kon [2]: 1.5e+06 M⁻¹ s⁻¹
Kd [3]: 38 nM
koff [3]: 0.038 s⁻¹
kon [3]: 1e+06 M⁻¹ s⁻¹
binding result [4]: no binding (tested: 30 nM highest concentration injected)
Kd [5]: 0.8 nM
koff [5]: 0.00013 s⁻¹
kon [5]: 170000 M⁻¹ s⁻¹
binding result [6]: no binding (tested: 50 nM highest concentration injected)
EC50, IFNγ production by primary human CD8 T cells (anti-CD3 plus plate-coated hFAP) [7]: 1.17 nM
Kd [8]: 0.013 nM
Kd [9]: 67 nM
koff [9]: 0.075 s⁻¹
kon [9]: 1.1e+06 M⁻¹ s⁻¹
koff [10]: 3.2e-05 s⁻¹
kon [10]: 2.6e+06 M⁻¹ s⁻¹
EC50, IFNγ secretion of human CD8 T cells (plate-coated hFAP) [11]: 1 to 2 nM
Kd [12]: 0.4 nM
koff [12]: 0.00013 s⁻¹
kon [12]: 470000 M⁻¹ s⁻¹

B2: bispecific construct #50 (designed binder)
chain: MRGSHHHHHHGSDLGEKLLVAALYGQDDEVRILLAAGADVNAKDQWGLTPLHKAALQGHLEIVEVLLKAGADVNAKDERGHTPLHWAARFGHLEIVEVLLKAGADVNAQDQKGYTPADLAALWGHEDIAEVLQKAAGSPTPTPTTPTPTPTTPTPTPTGSDLGKKLLEAARAGQDDEVRELLKAGADVNAKDKDGYTPLHLAAREGHLEIVEVLLKAGADVNAKDKDGYTPLHLAAREGHLEIVEVLLKAGADVNAQDKSGKTPADLAADAGHEDIAEVLQKAA
notes: also called negative control construct #50
Kd [13]: 0.22 nM
binding result [14]: no binding (tested: 50 nM highest concentration injected)
